Assay results as given in article doi:10.1101/2021.11.04.467353, “SHIP164 is a Chorein Motif Containing Lipid Transport Protein that Controls Membrane Dynamics and Traffic at the Endosome-Golgi Interface” (bioRxiv, 2021).

Target: the molecule itself
Assay: negative-stain electron microscopy; 2D class averages of negatively stained purified protein; 3XFLAG-SHIP164_(Δ901-1099) at 50 nM, 2% uranyl acetate; the MBP fusion locates the N-termini at the two ends of the rod

Protein | stoichiometry N
3XFLAG-SHIP164^Δ901-1099 (natural protein, SHIP164 (UHRF1BP1L), human, codon-optimised ORF from Genscript, lacking the predicted unstructured segment residues 901-1099; also called 3×FLAG-SHIP164_(Δ901-1099); UHRF1BP1L; source: Expi293F, transfected, purified (anti-FLAG M2 resin, Superdex 200 gel filtration); not shown: 3xFLAG, N-terminal, kept) not shown | 2
MBP-SHIP164 fusion (MBP fused to the N-terminus of SHIP164_(Δ901–1099)) (natural protein, SHIP164 (UHRF1BP1L), human, codon-optimised ORF, lacking residues 901-1099; Probably expressed in Expi293F and purified like m1, and it may also carry a 3xFLAG tag) not shown | 2
